The source of these data is the PETadex activity labels (doi:10.1021/acscatal.9b00568).

Substrate in this data set: PET
The data set is described as follows: Proxy for plastic degradation [HPLC-UV]. Particulars: pH 9.

Numbering of substitutions follows the chain as printed.

B1: unnamed (protein)
chain: MNFPRASRLMQAAVLGGLMAVSAAATAQTNPYARGPNPTAASLEASAGPFTVRSFTVSRPSGYGAGTVYYPTNAGGTVGAIAIVPGYTARQSSIKWWGPRLASHGFVVITIDTNSTLDQPESRSSQQMAALRQVASLNGTSSSPIYGKVDTARMGVMGWSMGGGGSLISAANNPSLKAAAAQAPWHSSTNFSSVTVPTLIFACENDSIAPVNSSALPIYDSMSRNAKQFLEINGGSHSCANSGNSNQALIGKKGVAWMKRFMDNDTRYSTFACENPNSTRVSDFRTANCS
In the case of B1, the “Proxy for plastic degradation” value (30 °C, 24 h) turned out to be 10.6 µM; the “Proxy for plastic degradation” value (30 °C, 72 h) came to 13.7 µM; the “Proxy for plastic degradation” value (40 °C, 24 h) stood at 13.9 µM; the “Proxy for plastic degradation” value (40 °C, 72 h) turned out to be 19.8 µM.

B2: unnamed (protein)
chain: B1 chain with A181P
On to B2, for which the “Proxy for plastic degradation” value (30 °C, 24 h) stood at 18.8 µM; the “Proxy for plastic degradation” value (30 °C, 72 h) is 30.5 µM; the “Proxy for plastic degradation” value (40 °C, 24 h) worked out at 38.7 µM; the “Proxy for plastic degradation” value (40 °C, 72 h) came out at 52.2 µM.

B3: unnamed (protein)
chain: B1 chain with E121S, A181P
For B3, the “Proxy for plastic degradation” value worked out at 10.4 µM (30 °C, 24 h); 12.8 µM (30 °C, 72 h); 8.7 µM (40 °C, 24 h); 19.7 µM (40 °C, 72 h).

B4: unnamed (protein)
chain: B1 chain with E121D, A181P, R280A
With B4, the “Proxy for plastic degradation” value turned out to be 22.2 µM (30 °C, 24 h); 57.2 µM (30 °C, 72 h); 69.8 µM (40 °C, 24 h); 93.6 µM (40 °C, 72 h).

B5: unnamed (protein)
chain: B1 chain with E121S, A181P, H186I
With B5, the “Proxy for plastic degradation” value was 1.3 µM (30 °C, 24 h); 2.4 µM (30 °C, 72 h); 1.2 µM (40 °C, 24 h); 6.9 µM (40 °C, 72 h).

B6: unnamed (protein)
chain: B1 chain with E121D
B6: the “Proxy for plastic degradation” value is, setting by setting: (30 °C, 24 h) 13.4 µM; (30 °C, 72 h) 18.9 µM; (40 °C, 24 h) 18 µM; (40 °C, 72 h) 25.3 µM.
